In the Immune Epitope Database (IEDB):

Tests used:
HLA-C*15:02 = assay: IEDB peptide-MHC binding, purified MHC/direct/fluorescence; filed as Kd, often an IC50 or EC50 that approximates it; ≥ and ≤ were set here for values at or beyond the usual limits of such assays
HLA-A*01:01 = assay: as above
HLA-A*02:01 [1] = assay: as above
HLA-A*02:11 = assay: as above; settings: source organism: Zaire ebolavirus
HLA-A*02:12 = assay: as above; settings: source organism: Zaire ebolavirus
HLA-A*03:01 = assay: as above
HLA-A*11:01 = assay: as above
HLA-A*23:01 [2] = assay: as above
HLA-A*24:03 = assay: as above
HLA-A*29:02 = assay: as above
HLA-A*31:01 = assay: as above
HLA-A*68:02 = assay: as above; settings: source organism: Zaire ebolavirus
HLA-A*69:01 = assay: as above
HLA-B*07:02 = assay: as above
HLA-B*08:01 = assay: as above
HLA-B*15:01 = assay: as above
HLA-B*18:01 = assay: as above
HLA-B*27:05 = assay: as above
HLA-B*40:01 = assay: as above
HLA-B*44:02 = assay: as above
HLA-B*46:01 = assay: as above
HLA-B*57:01 = assay: as above
HLA-B*58:01 = assay: as above
HLA-A*26:01 [3] = assay: IEDB peptide-MHC binding, purified MHC/competitive/fluorescence; filed as Kd, often an IC50 or EC50 that approximates it; ≥ and ≤ were set here for values at or beyond the usual limits of such assays; settings: source organism: Zaire ebolavirus
HLA-B*15:17 = assay: as above; settings: source organism: Zaire ebolavirus
HLA-B*27:03 = assay: as above; settings: source organism: Zaire ebolavirus
HLA-B*39:01 [4] = assay: as above; settings: source organism: Zaire ebolavirus
HLA-B*51:01 = assay: as above; settings: source organism: Zaire ebolavirus
HLA-A*24:02 [5] = assay: IEDB peptide-MHC binding, purified MHC/direct/fluorescence; filed as Kd, often an IC50 or EC50 that approximates it; ≥ and ≤ were set here for values at or beyond the usual limits of such assays
HLA-C*05:01 = assay: as above; settings: source organism: Giardia intestinalis
HLA-A*30:01 = assay: as above
HLA-A*26:01 [6] = assay: as above
HLA-B*35:01 = assay: IEDB peptide-MHC binding, purified MHC/competitive/fluorescence; filed as Kd, often an IC50 or EC50 that approximates it; ≥ and ≤ were set here for values at or beyond the usual limits of such assays; settings: source organism: Influenza A virus H3N2
HLA-A*23:01 [7] = assay: as above; settings: source organism: Bacillus cereus ATCC 14579
HLA-A*02:01 [8] = assay: IEDB peptide-MHC binding, purified MHC/competitive/fluorescence; ≥ and ≤ were set here for values at or beyond the usual limits of such assays; settings: source organism: Zaire ebolavirus
HLA-A*24:02 [9] = assay: as above; settings: source organism: Zaire ebolavirus
HLA-B*39:01 [10] = assay: IEDB peptide-MHC binding, purified MHC/direct/fluorescence; filed as Kd, often an IC50 or EC50 that approximates it; ≥ and ≤ were set here for values at or beyond the usual limits of such assays; settings: source organism: Zaire ebolavirus
[11] = source organism: Sudan ebolavirus - Maleo (1979)
[12] = source organism: Zaire ebolavirus
[13] = source organism: Giardia lamblia ATCC 50803
[14] = source organism: Orthohantavirus hantanense
[15] = source organism: Yersinia pestis Antiqua
[16] = source organism: Yersinia pestis
[17] = source organism: Corynebacterium glutamicum
[18] = source organism: Aggregatibacter actinomycetemcomitans
[19] = source organism: Dengue virus 1 Singapore/S275/1990

Sequence TVCGGIMFL has a Kd (HLA-C*15:02; source organism: human gammaherpesvirus 4) of 2.47 µM.

MHYKLDEVL was tested, and the Kd (HLA-A*01:01; [11]) was ≥ 20 µM, the Kd (HLA-A*02:01 [1]; [11]) was ≥ 20 µM and the Kd (HLA-A*02:11) was ≥ 20 µM. The Kd (HLA-A*02:12) was ≥ 20 µM, the Kd (HLA-A*03:01; [11]) was ≥ 20 µM and the Kd (HLA-A*11:01; [11]) was ≥ 20 µM. The Kd (HLA-A*23:01 [2]; [12]) was ≥ 20 µM, the Kd (HLA-A*24:03; [12]) was ≥ 20 µM and the Kd (HLA-A*29:02; [11]) was ≥ 20 µM. For the same sequence, the Kd (HLA-A*31:01; [11]) was ≥ 20 µM, the Kd (HLA-A*68:02) was ≥ 20 µM and the Kd (HLA-A*69:01; [11]) was ≥ 20 µM. For the same sequence, the Kd (HLA-B*07:02; [11]) was ≥ 20 µM, the Kd (HLA-B*08:01; [11]) was ≥ 20 µM and the Kd (HLA-B*15:01; [11]) was ≥ 20 µM. The Kd (HLA-B*18:01; [11]) was ≥ 20 µM, the Kd (HLA-B*27:05; [11]) was ≥ 20 µM and the Kd (HLA-B*40:01; [11]) was ≥ 20 µM. The Kd (HLA-B*44:02; [11]) was ≥ 20 µM, the Kd (HLA-B*46:01; [11]) was ≥ 20 µM and the Kd (HLA-B*57:01; [11]) was ≥ 20 µM. For the same sequence, the Kd (HLA-B*58:01; [11]) was ≥ 20 µM, the Kd (HLA-A*26:01 [3]) was ≥ 20 µM and the Kd (HLA-B*15:17) was ≥ 20 µM. For the same sequence, the Kd (HLA-B*27:03) was ≥ 20 µM, the Kd (HLA-B*39:01 [4]) was 0.0041 µM and the Kd (HLA-B*51:01) was ≥ 20 µM.

WSDLNTTDF was tested, and the Kd (HLA-A*01:01; [13]) was 0.156 µM, the Kd (HLA-A*02:01 [1]; [13]) was ≥ 20 µM and the Kd (HLA-A*03:01; [13]) was ≥ 20 µM. For the same sequence, the Kd (HLA-A*11:01; [13]) was ≥ 20 µM, the Kd (HLA-A*24:02 [5]; [13]) was ≥ 20 µM and the Kd (HLA-A*31:01; [13]) was ≥ 20 µM. The Kd (HLA-B*07:02; [13]) was ≥ 20 µM, the Kd (HLA-B*15:01; [13]) was ≥ 20 µM and the Kd (HLA-B*27:05; [13]) was ≥ 20 µM. The Kd (HLA-B*40:01; [13]) was ≥ 20 µM, the Kd (HLA-B*44:02; [13]) was ≥ 20 µM and the Kd (HLA-B*46:01; [13]) was ≥ 20 µM. For the same sequence, the Kd (HLA-B*58:01; [13]) was ≥ 20 µM and the Kd (HLA-C*05:01) was ≤ 0.001 µM.

In the case of NYYAPRIQF, the Kd (HLA-A*23:01 [2]; [14]) is reported as 0.0059 µM, the Kd (HLA-A*24:03; [14]) is reported as 0.0074 µM and the Kd (HLA-A*30:01; source organism: Hantaan virus Q32) is reported as ≥ 20 µM.

In the case of VTTPARTAF, the Kd (HLA-B*58:01; source organism: Mycobacterium avium 104) is reported as 1.1 µM and the Kd (HLA-C*15:02; source organism: Mycobacterium tuberculosis C) is reported as ≥ 20 µM.

For RYQRMTGGY, the Kd (HLA-A*01:01; [15]) was ≥ 20 µM, the Kd (HLA-A*02:01 [1]; [15]) was ≥ 20 µM and the Kd (HLA-A*03:01; [15]) was ≥ 20 µM. For the same sequence, the Kd (HLA-A*24:03; [16]) was 0.00621 µM, the Kd (HLA-A*26:01 [6]; [15]) was ≥ 20 µM and the Kd (HLA-A*30:01; [16]) was 2.34 µM. The Kd (HLA-A*31:01; [16]) was 0.388 µM, the Kd (HLA-A*69:01; [15]) was ≥ 20 µM and the Kd (HLA-B*07:02; [15]) was ≥ 20 µM. For the same sequence, the Kd (HLA-B*08:01; [15]) was ≥ 20 µM, the Kd (HLA-B*15:01; [16]) was 1.35 µM and the Kd (HLA-B*27:05; [16]) was 2.93 µM. The Kd (HLA-B*40:01; [15]) was ≥ 20 µM and the Kd (HLA-B*58:01; [15]) was ≥ 20 µM.

For ATQPVHWFL, the Kd (HLA-A*01:01; [17]) was 3.13 µM, the Kd (HLA-A*02:01 [1]; [17]) was 0.115 µM and the Kd (HLA-A*03:01; [17]) was ≥ 20 µM. For the same sequence, the Kd (HLA-A*11:01; [17]) was 0.021 µM, the Kd (HLA-A*24:03; [17]) was 0.00444 µM and the Kd (HLA-A*26:01 [6]; [17]) was ≥ 20 µM. For the same sequence, the Kd (HLA-A*30:01; [17]) was 0.0317 µM, the Kd (HLA-B*07:02; [17]) was 6.67 µM and the Kd (HLA-B*08:01; [17]) was ≥ 20 µM. The Kd (HLA-B*15:01; [17]) was ≥ 20 µM, the Kd (HLA-B*27:05; [17]) was ≥ 20 µM and the Kd (HLA-B*40:01; [17]) was ≥ 20 µM. For the same sequence, the Kd (HLA-B*58:01; [17]) was 0.444 µM.

For ILMEHIHKL, the Kd (HLA-C*15:02; source organism: Rattus norvegicus) was 0.239 µM.

RSEVELCIY was tested, and the Kd (HLA-A*01:01; [18]) was 0.111 µM, the Kd (HLA-A*02:01 [1]; [18]) was ≥ 20 µM and the Kd (HLA-A*03:01; [18]) was ≥ 20 µM. The Kd (HLA-A*11:01; [18]) was ≥ 20 µM, the Kd (HLA-A*24:03; [18]) was ≥ 20 µM and the Kd (HLA-A*26:01 [6]; [18]) was ≥ 20 µM. For the same sequence, the Kd (HLA-A*30:01; [18]) was ≥ 10 µM, the Kd (HLA-A*31:01; [18]) was ≥ 20 µM and the Kd (HLA-A*69:01; [18]) was ≥ 20 µM. The Kd (HLA-B*07:02; [18]) was ≥ 20 µM, the Kd (HLA-B*08:01; [18]) was ≥ 20 µM and the Kd (HLA-B*15:01; [18]) was 6.28 µM. The Kd (HLA-B*27:05; [18]) was ≥ 20 µM, the Kd (HLA-B*40:01; [18]) was ≥ 20 µM and the Kd (HLA-B*58:01; [18]) was 0.663 µM.

LTITYSSSM was tested, and the Kd (HLA-A*26:01 [6]; source organism: Influenza A virus (A/swine/Miyagi/5/2003(H1N2))) was 0.0618 µM and the Kd (HLA-B*35:01) was 1.18 µM.

LYSLWTKRK was tested, and the Kd (HLA-A*23:01 [7]) was 0.245 µM.

For GFMNEDHWF, the Kd (HLA-A*23:01 [2]; [19]) was 0.046 µM and the Kd (HLA-A*24:02 [5]; [19]) was 0.09 µM.

With KSRRFTVRF the Kd (HLA-B*58:01; source organism: Mycobacterium tuberculosis) was 0.422 µM and the Kd (HLA-C*15:02; source organism: Mycobacterium tuberculosis variant bovis BCG str. Pasteur 1173P2) was ≥ 20 µM.

GHMMVIFRL was tested, and the IC50 (HLA-A*02:01 [8]) was 0.205 µM, the IC50 (HLA-A*24:02 [9]) was 0.19 µM and the Kd (HLA-A*01:01; [12]) was ≥ 20 µM. The Kd (HLA-A*02:01 [1]; [12]) was ≥ 20 µM, the Kd (HLA-A*02:11) was ≥ 20 µM and the Kd (HLA-A*02:12) was ≥ 20 µM. The Kd (HLA-A*03:01; [12]) was ≥ 20 µM, the Kd (HLA-A*24:03; [12]) was ≥ 20 µM and the Kd (HLA-A*29:02; [12]) was ≥ 20 µM. For the same sequence, the Kd (HLA-A*31:01; [12]) was ≥ 20 µM, the Kd (HLA-A*68:02) was ≥ 20 µM and the Kd (HLA-A*69:01; [12]) was ≥ 20 µM. For the same sequence, the Kd (HLA-B*07:02; [12]) was ≥ 20 µM, the Kd (HLA-B*15:01; [12]) was ≥ 20 µM and the Kd (HLA-B*18:01; [12]) was ≥ 20 µM. The Kd (HLA-B*27:05; [12]) was ≥ 20 µM, the Kd (HLA-B*39:01 [10]) was 0.0867 µM and the Kd (HLA-B*40:01; [12]) was ≥ 20 µM. For the same sequence, the Kd (HLA-B*44:02; [12]) was ≥ 20 µM, the Kd (HLA-B*46:01; [12]) was ≥ 20 µM and the Kd (HLA-B*57:01; [12]) was ≥ 20 µM. The Kd (HLA-B*58:01; [12]) was ≥ 20 µM, the Kd (HLA-A*26:01 [3]) was ≥ 20 µM and the Kd (HLA-B*15:17) was ≥ 20 µM. The Kd (HLA-B*27:03) was ≥ 20 µM and the Kd (HLA-B*51:01) was ≥ 20 µM.
